T1: Human CD32a(H) (Sino Biological, 10374-H27H1-B) (human, UniProt P12318 34-218)
T1 construct: Loaded on streptavidin biosensors
T1 sequence (looked up): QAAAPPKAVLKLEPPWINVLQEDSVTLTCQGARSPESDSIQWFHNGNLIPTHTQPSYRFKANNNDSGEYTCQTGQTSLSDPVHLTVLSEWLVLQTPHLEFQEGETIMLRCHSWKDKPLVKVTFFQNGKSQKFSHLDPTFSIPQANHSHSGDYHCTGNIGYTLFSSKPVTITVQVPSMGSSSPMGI

T2: Human CD32b (human, UniProt P31994 43-217, limits assumed)
T2 sequence (looked up): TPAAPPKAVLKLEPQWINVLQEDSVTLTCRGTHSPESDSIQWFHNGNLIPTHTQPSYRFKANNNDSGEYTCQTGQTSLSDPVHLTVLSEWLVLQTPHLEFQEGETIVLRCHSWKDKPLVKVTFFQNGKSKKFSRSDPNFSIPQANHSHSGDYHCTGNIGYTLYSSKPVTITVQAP


What was measured:
Claudin18.2 on cells [1] = target: T3, Claudin18.2 on cells (human, UniProt P56856-2 1-261); experiment: flow cytometry on NUGC4 cells, antibody at 1.5 µg/mL
T3 construct: whole, on cells; the cell line of each result is named under assay or readout

Claudin18.2 on cells [2] = target: T3, Claudin18.2 on cells; experiment: flow cytometry on 293T-Claudin18.2 cells, antibody at 1.5 µg/mL
Claudin18.2 on cells [3] = target: T3, Claudin18.2 on cells; experiment: flow cytometry on 293T-Claudin18.2 cells, antibody at 3 µg/mL
Claudin18.2 on cells [4] = target: T3, Claudin18.2 on cells; experiment: flow cytometry on 293T-Claudin18.2 cells, antibody at 0.375 µg/mL
Claudin18.2 on cells [5] = target: T3, Claudin18.2 on cells; experiment: cell-based or functional assay
Claudin18.2 on cells [6] = target: T3, Claudin18.2 on cells; experiment: flow cytometry on 293T-Claudin18.2 cells, antibody at 0.75 µg/mL
Claudin18.2 on cells [7] = target: T3, Claudin18.2 on cells; experiment: flow cytometry on NUGC4 cells, antibody at 0.75 µg/mL
Claudin18.2 on cells [8] = target: T3, Claudin18.2 on cells; experiment: flow cytometry on NUGC4 cells, antibody at 3 µg/mL
[9] = target: T4, Human CD16a(F) (Sino Biological, 10389-H27H-B) (human, UniProt P08637 17-208); experiment: BLI (Octet RED 96), Human CD16a(F) on streptavidin biosensor, 1:1 fit
T4 construct: Loaded on streptavidin biosensors
T4 sequence (P08637 17-208 limits assumed): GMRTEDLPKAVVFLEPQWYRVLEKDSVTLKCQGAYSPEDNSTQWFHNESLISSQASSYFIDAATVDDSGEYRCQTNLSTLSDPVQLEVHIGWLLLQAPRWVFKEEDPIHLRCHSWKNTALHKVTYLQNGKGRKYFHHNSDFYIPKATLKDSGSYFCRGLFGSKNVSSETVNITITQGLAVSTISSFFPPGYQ

[10] = target: T1, Human CD32a(H) (Sino Biological, …); experiment: BLI; KD of CLDQMIX-CA808.1-IgG1 against KD of CLDQMIX-CA808.1-IgG1 VLPLL
[11] = target: T5, Human FcRn (ACROBiosystems, FCM-H82W4) (human, UniProt P55899 24-297; P61769 21-119); experiment: as above
T5 construct: Loaded on streptavidin biosensors
T5 sequence (P55899 24-297 limits assumed, chain 1 of 2): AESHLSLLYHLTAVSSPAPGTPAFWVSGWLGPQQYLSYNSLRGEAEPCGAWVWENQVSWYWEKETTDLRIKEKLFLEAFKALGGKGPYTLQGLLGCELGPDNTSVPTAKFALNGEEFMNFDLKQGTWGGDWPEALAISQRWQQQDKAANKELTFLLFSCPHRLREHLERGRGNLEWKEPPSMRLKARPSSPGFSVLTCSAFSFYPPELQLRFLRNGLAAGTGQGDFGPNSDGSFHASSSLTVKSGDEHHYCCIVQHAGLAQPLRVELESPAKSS
T5 sequence (P61769 21-119 limits assumed, chain 2 of 2): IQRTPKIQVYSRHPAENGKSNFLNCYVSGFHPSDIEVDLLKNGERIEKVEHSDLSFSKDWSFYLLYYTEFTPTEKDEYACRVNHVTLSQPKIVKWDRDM

[12] = target: T4, Human CD16a(F) (Sino Biological, …); experiment: as above
[13] = target: T6, Human CD16a(V) (Sino Biological, 10389-H27H1-B) (human, UniProt P08637 17-208); experiment: as above
T6 construct: Loaded on streptavidin biosensors
T6 sequence (P08637 17-208 F176V limits assumed): as the sequence (P08637 17-208 limits assumed) above, with F160V counted along it

[14] = target: T1, Human CD32a(H) (Sino Biological, …); experiment: BLI (Octet RED 96), Human CD32a(H) on streptavidin biosensor, steady state analysis
[15] = target: T5, Human FcRn (ACROBiosystems, FCM-H82W4); experiment: BLI (Octet RED 96), Human FcRn on streptavidin biosensor, steady state analysis
[16] = target: T6, Human CD16a(V) (Sino Biological, …); experiment: BLI (Octet RED 96), Human CD16a(V) on streptavidin biosensor, 1:1 fit
Human CD32b = target: T2, Human CD32b; experiment: BLI (Octet RED 96), Human CD32b on streptavidin biosensor, steady state analysis
Claudin18.1 on cells [17] = target: T7, Claudin18.1 on cells (human, UniProt P56856 1-261); experiment: flow cytometry on 293T-Claudin18.1 cells, antibody at 0.375 µg/mL
T7 construct: whole, on cells

Claudin18.2 on cells [18] = target: T3, Claudin18.2 on cells; experiment: flow cytometry on 293T-Claudin18.2 cells, antibody at 1.5 µg/mL; remark: listed apart in the source
Claudin18.2 on cells [19] = target: T3, Claudin18.2 on cells; experiment: flow cytometry on 293T-Claudin18.2 cells, antibody at 3 µg/mL; remark: listed apart in the source
Claudin18.1 on cells [20] = target: T7, Claudin18.1 on cells; experiment: flow cytometry on 293T-Claudin18.1 cells, antibody at 0.75 µg/mL
Claudin18.2 on cells [21] = target: T3, Claudin18.2 on cells; experiment: cell-based or functional assay; remark: listed apart in the source
Claudin18.2 on cells [22] = target: T3, Claudin18.2 on cells; experiment: flow cytometry on 293T-Claudin18.2 cells, antibody at 0.375 µg/mL; remark: listed apart in the source
Claudin18.1 on cells [23] = target: T7, Claudin18.1 on cells; experiment: flow cytometry on 293T-Claudin18.1 cells, antibody at 3 µg/mL
Claudin18.1 on cells [24] = target: T7, Claudin18.1 on cells; experiment: flow cytometry on 293T-Claudin18.1 cells, antibody at 1.5 µg/mL
Claudin18.2 on cells [25] = target: T3, Claudin18.2 on cells; experiment: cell-based or functional assay; remark: listed apart in the source
Claudin18.2 on cells [26] = target: T3, Claudin18.2 on cells; experiment: flow cytometry on 293T-Claudin18.2 cells, antibody at 0.75 µg/mL; remark: listed apart in the source

Row | Binder | mean fluorescence intensity (Claudin18.2 on cells [1]) | mean fluorescence intensity (Claudin18.2 on cells [2]) | mean fluorescence intensity (Claudin18.2 on cells [3]) | mean fluorescence intensity (Claudin18.2 on cells [4]) | ADCC inhibition rate, %, antibody 0.5 µg/mL, 293T-Claudin18.2 target cells, PBMC effectors, LDH (Claudin18.2 on cells [5]) [%] | ADCC inhibition rate, %, antibody 5 µg/mL, 293T-Claudin18.2 target cells, PBMC effectors, LDH (Claudin18.2 on cells [5]) [%] | ADCC inhibition rate, %, antibody 50 µg/mL, 293T-Claudin18.2 target cells, PBMC effectors, LDH (Claudin18.2 on cells [5]) [%] | mean fluorescence intensity (Claudin18.2 on cells [6]) | mean fluorescence intensity (Claudin18.2 on cells [7]) | mean fluorescence intensity (Claudin18.2 on cells [8]) | Kd [9] [nM] | Kd [14] [nM] | Kd [15] [nM] | Kd [16] [nM] | Kd (Human CD32b) [nM] | other results
1 | CLD393-C1002-IgG1 (antibody, V domains shown, Complete IgG1 made in HEK293 cells; also called CLD387-C1002-IgG1) VH: QVQLVESGGGVVQPGRSLRLSCAASGFTFSSHDMHWVRQAPGKGLEWVADISDDGSNKNYADSVKGRFTISRDNSKNTLYLQMNSLRAEDAAVYYCAREGLRWFGEFYYSYGMDVWGQGTTVTVSS VL: not shown | 4890 | 1.16e+06 | 1.33e+06 | 406000 | 22 | 49 | 64 | 852000 | 4950 | 5170 | – | – | – | – | – | –
2 | CLD393-C1024-IgG1 (antibody, V domains shown, Complete IgG1 made in HEK293 cells; also called CLD383-C1024-IgG1) VH: EVQLVQSGGGVVQPGRSLRLSCAASGFTFSSYDMHWVRQAPGKGLEWVADISDDGSNKNYADSVKGRFTISRDNSKNTLYLQMNSLRAEDAAVYYCAREGLRWFGEFYYSYGMDVWGQGTTVTVSS VL: not shown | 5640 | 1.03e+06 | 1.37e+06 | 308000 | 15 | 47 | 48 | 787000 | 5210 | 6140 | – | – | – | – | – | –
3 | CLDQMix-CA808.1-IgG1-VLPLL (antibody) heavy: not shown light: DIVMTQSPSSLSASVGDRVTITCRASQGIRNDLGWYQQKPGKAPKLLIYAASSLQSGVPSRFSGSGSGTDFTLTISSLQPEDFATYYCLQDYNYPRTFGQGTKVEIKRTVAAPSVFIFPPSDEQLKSGTASVVCLLNNFYPREAKVQWKVDNALQSGNSQESVTEQDSKDSTYSLSSTLTLSKADYEKHKVYACEVTHQGLSSPVTKSFNRGEC | – | – | – | – | – | – | – | – | – | – | 119 | 300 | 5.27 | 54.1 | 3000 | Ratio of KD [10]: 1.37; Ratio of KD [11]: 1.31; Ratio of KD [12]: 4.75; Ratio of KD [13]: 1.98
4 | CLDQMIX-CA808.1-IgG1 (antibody, Complete IgG1 made in HEK293 cells from the scFv clone; also called CLDMIX-CA808.1-IgG1) heavy: not shown light: DIVMTQSPSSLSASVGDRVTITCRASQGIRNDLGWYQQKPGKAPKLLIYAASSLQSGVPSRFSGSGSGTDFTLTISSLQPEDFATYYCLQDYNYPRTFGQGTKVEIKRTVAAPSVFIFPPSDEQLKSGTASVVCLLNNFYPREAKVQWKVDNALQSGNSQESVTEQDSKDSTYSLSSTLTLSKADYEKHKVYACEVTHQGLSSPVTKSFNRGEC | 138000 | – | – | – | – | – | – | – | 75600 | 185000 | 566 | 410 | 6.93 | 107 | 3200 | mean fluorescence intensity (Claudin18.1 on cells [17]): 26000; mean fluorescence intensity (Claudin18.2 on cells [18]): 1.2e+06; mean fluorescence intensity (Claudin18.2 on cells [19]): 1.38e+06; mean fluorescence intensity (Claudin18.1 on cells [20]): 29400; ADCC inhibition rate, %, antibody 0.1 µg/mL, 293T-Claudin18.2 target cells, PBMC effectors, LDH (Claudin18.2 on cells [21]): 39.4%; ADCC inhibition rate, %, antibody 1 µg/mL, 293T-Claudin18.2 target cells, PBMC effectors, LDH (Claudin18.2 on cells [21]): 63.6%; ADCC inhibition rate, %, antibody 10 µg/mL, 293T-Claudin18.2 target cells, PBMC effectors, LDH (Claudin18.2 on cells [21]): 57.4%; mean fluorescence intensity (Claudin18.2 on cells [22]): 535000; mean fluorescence intensity (Claudin18.1 on cells [23]): 47500; mean fluorescence intensity (Claudin18.1 on cells [24]): 28900; ADCC EC50 (µg/mL), NUGC4 target cells, Jurkat reporter effector cells, Bio-Glo (Claudin18.2 on cells [25]): 1.26 µg/mL; mean fluorescence intensity (Claudin18.2 on cells [26]): 753000
